Results published in paper PMC12014896 (2025).

B1: COVIC-366 (antibody, V domains shown)
VH: EVQLVESGGGLVQPGRSLRLSCAASGFSLDDYGMHWVRQAPGKGLEWVSGISWNSGDRGYADSVKGRFTISRDNAKNSLYLQMNSLRAEDTALYYCAKGSGAHYDIMTGARLDYWGQGTLVTVSS
VL: DIQMTQSPSSLSASVGDRVTITCRASQSITNYLNWYQQKPGKVPKLLIYAASILQSGVPSRFSGSGSGTDFTLTISSLQPEDFATYYCQQSYSTPWTFGQGTKVEIKR
B2: COVIC-124 (antibody)
chain: QVQLQESGGGLVQAGGSLRLSCAASGRTFSEYAMGWFRQAPGKEREFVATISWSGGSTYYTDSVKGRFTISRDNAKNTVYLQMNSLKPDDTAVYYCAAAGLGTVVSEWDYDYDYWGQGTQVTVSSGGSGGSQVQLQESGGGLVQAGGSLRLSCAASGRTFSEYAMGWFRQAPGKEREFVATISWSGGSTYYTDSVKGRFTISRDNAKNTVYLQMNSLKPDDTAVYYCAAAGLGTVVSEWDYDYDYWGQGTQVTVSSGGGGSGGGGSEPKSCDKTHTCPPCPAPELLGGKKKPLDGEYFTLQIRGRERFEMFRELNEALELKDAQAGKEPGGGGGSGGGGSQVQLQESGGGLVQAGGSLRLSCAASGRTFSEYAMGWFRQAPGKEREFVATISWSGGSTYYTDSVKGRFTISRDNAKNTVYLQMNSLKPDDTAVYYCAAAGLGTVVSEWDYDYDYWGQGTQVTVSSGGSGGSQVQLQESGGGLVQAGGSLRLSCAASGRTFSEYAMGWFRQAPGKEREFVATISWSGGSTYYTDSVKGRFTISRDNAKNTVYLQMNSLKPDDTAVYYCAAAGLGTVVSEWDYDYDYWGQGTQVTVSS
B3: COVIC-313 (antibody)
chain 1: QVQLVQSGAEVKKPGSSVKVSCKASGGTFGISWVRQAPGQGLEWMGRIIPILGTANHAQKFQGRVTITADKSTGTVYMELSSLRSEDTAVYYCARDGDSGSYYETLGFDYWGQGTLVTVSSASTKGPSVFPLAPEVQLVESGGGLVKPGGSLRLSCAASGFTFSPYSMNWVRQAPGKGLEWVSSISVSNIYTYYADSVKGRFTISRDNAKNSLYLQMNSLRAEDTAIYYCARDLKKGGIQYDAFDIWGQGTVVTVSS
chain 2: QSALTQPPSASGSPGQSVTISCTGTSSDVGGYNYVSWYQQHPGKAPKLMIYEVNKRPSGVPDRFSGSKSGNTASLTVSGLQAEDEADYYCSSYAGSNNLVFGGGTKLTVLQPKAAPSVTLFPPEIVLTQSPATLSLSPGERATLSCRASQSVNDYLAWYQQKPGQAPRLLIYDASNRATGFPARFSGSGSGTDFTLTISSLEPEDFAVYYCQQRSNWPPTFGQGTRLEIK
B4: COVIC-168 (antibody, V domains shown)
VH: EVQLVESGGGLIQPGGSLRLSCAASGVTVSSNYMNWVRQAPGKGLEGVSVIYSGGTTYYADSVKGRFTISRDNSKNTLYLQMNSLRAEDTAVYYCARDTVVYGMDVWGQGTTVTVSS
VL: DIQLTQSPSFLSASVGDRVTITCWASQGISSYLAWYQQKPGKAPKLLIYTASTLQSGVPSRFSGSGSGTEFTLTISSLQPEDFATYYCQQLNSYPLTFGGGTKVEIKR
B5: COVIC-252 (antibody, V domains shown)
VH: EVQLLESGGGLIQPGGSLRLSCAASGFIVSSNYMSWVRQAPGKGLEWVSVIYSGGSTFYADSVKGRFTISRDNSNNTLYLQMNSLRAEDTAVYYCARDYGDFYFDYWGQGTLVTVSS
VL: DIQMTQSPSTLSVSPGERATLSCRASQSVSSNLAWYQQKPGQAPRLLIYGASTRATGIPVRFSGSGSGTESTLTISSLQSEDFAVYYCQQYNKWPRTFGQGTKVEIK
B6: COVIC-134 (antibody, V domains shown)
VH: EVQLVESGGGVVQPGRSLRLSCAASGFTFSSYGMHWVRQAPGKGLEWVAVIWYDGSNKYYADSVKGRFTISRDNSKNTLYLQMNSLRAEDTAVYYCAKGPDILTGYYNYYYYGMDVWGQGTMVTVSS
VL: QSVLTQPPSVSGAPGQRVTISCTGSSSNIGAGYDVHWYQQLPGTAPKLLIYGNSNRPSGVPDRFSGSKSGTSASLAITGLQAEDEADYYCQSYDSSLSGFYVVFGGGTKLTVL
B7: COVIC-59 (antibody, V domains shown)
VH: QVQLQESGGGLVQAGGSLRLSCAASGRTFSEYAMGWFRQAPGKEREFVATISWSGGSTYYTDSVKGRFTISRDNAKNTVYLQMNSLKPDDTAVYYCAAAGLGTVVSEWDYDYDYWGQGTQVTVSS

Molecular target: SARS-CoV-2 spike RBD (Wuhan-Hu-1) (Severe acute respiratory syndrome …, UniProt P0DTC2)
Experiment: SPR

Going from B1 to B2, the Kd rises from 0.0703 nM to 167 nM (2400-fold).

Compared with B3, B4 is 160-fold higher in Kd: 0.155 nM for the first, 24.1 nM for the second.

First: B5
Second: B6
The Kd of the first is 6-fold lower: 15.1 nM for the first, 90 nM for the second.

B7 showed a Kd of 201 nM.
